Assays:
cynomolgus RSPO2 = cynomolgus RSPO2 (cynomolgus, UniProt G7PCH9 22-243); assay: cell-based or functional assay
recombinant human RSPO3 [1] = target: T1, recombinant human RSPO3 (human, UniProt Q9BXY4 22-272); assay: cell-based or functional assay
T1 sequence: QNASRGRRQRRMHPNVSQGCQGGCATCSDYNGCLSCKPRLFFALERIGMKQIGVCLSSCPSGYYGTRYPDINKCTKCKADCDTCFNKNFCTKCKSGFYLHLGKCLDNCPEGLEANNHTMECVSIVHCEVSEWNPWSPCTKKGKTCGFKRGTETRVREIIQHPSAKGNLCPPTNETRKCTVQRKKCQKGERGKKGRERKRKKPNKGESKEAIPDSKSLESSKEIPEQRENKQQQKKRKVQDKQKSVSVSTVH

mouse RSPO3 [2] = target: T2, mouse RSPO3 (mouse, UniProt Q2TJ95 22-277, limits assumed); assay: cell-based or functional assay
T2 sequence (looked up): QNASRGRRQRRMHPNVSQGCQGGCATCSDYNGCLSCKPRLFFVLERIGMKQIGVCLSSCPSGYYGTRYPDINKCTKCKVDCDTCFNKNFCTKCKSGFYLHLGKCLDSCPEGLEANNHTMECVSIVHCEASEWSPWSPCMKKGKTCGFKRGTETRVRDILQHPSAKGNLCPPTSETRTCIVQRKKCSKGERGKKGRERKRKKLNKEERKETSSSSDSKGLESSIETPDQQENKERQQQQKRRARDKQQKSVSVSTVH

cynomolgus RSPO3 [3] = target: T3, cynomolgus RSPO3 (cynomolgus, UniProt A0A2K5UTQ7 22-273); assay: cell-based or functional assay
T3 sequence: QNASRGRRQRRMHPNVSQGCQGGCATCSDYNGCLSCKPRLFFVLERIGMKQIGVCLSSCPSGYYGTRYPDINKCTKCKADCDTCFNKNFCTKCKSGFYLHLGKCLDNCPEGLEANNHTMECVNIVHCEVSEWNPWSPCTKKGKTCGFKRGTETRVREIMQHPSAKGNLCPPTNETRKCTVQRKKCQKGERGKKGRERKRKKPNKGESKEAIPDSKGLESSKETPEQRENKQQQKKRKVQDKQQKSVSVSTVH

mouse RSPO2 = mouse RSPO2 (mouse, UniProt Q8BFU0 22-205, limits assumed); assay: cell-based or functional assay
recombinant human RSPO2 = recombinant human RSPO2 (human, UniProt Q6UXX9 22-243); assay: cell-based or functional assay
[4] = target: T4, FLAG-tagged human RSPO3 (Genentech) (human, UniProt Q9BXY4 22-272); assay: competitive binding ELISA: titrated against biotinylated RNF43-Flag (RNF43-ECD) binding to plate-coated hRSPO3; signal = bound RNF43, normalized OD
T4 construct: also called hRSPO3; RSPO3 coated plates; not shown: FLAG tag
T4 sequence: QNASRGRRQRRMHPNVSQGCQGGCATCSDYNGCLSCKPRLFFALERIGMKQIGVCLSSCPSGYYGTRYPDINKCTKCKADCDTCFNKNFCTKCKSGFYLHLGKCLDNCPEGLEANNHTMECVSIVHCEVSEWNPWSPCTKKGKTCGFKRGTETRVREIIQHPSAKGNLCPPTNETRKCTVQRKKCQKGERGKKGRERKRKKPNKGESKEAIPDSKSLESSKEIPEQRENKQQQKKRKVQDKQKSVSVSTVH

[5] = target: T5, human RSPO1 with C-terminal HA tag, stably expressed in 293 cells (human, UniProt Q2MKA7 21-263); assay: IHC, FFPE 293 cell pellet, RSPO1 Hi; - = not significant staining
T5 construct: also called hRSPO1; RSPO1 Hi

[6] = target: T6, human RSPO3 with C-terminal HA tag, stably expressed in 293 cells (human, UniProt Q9BXY4 22-272); assay: IHC, FFPE 293 cell pellet, RSPO3 Med
T6 construct: Whole open reading frame expressed in HEK-293 cells (high, medium, low); FFPE pellets; also called hRSPO3; RSPO3 Hi
T6 sequence: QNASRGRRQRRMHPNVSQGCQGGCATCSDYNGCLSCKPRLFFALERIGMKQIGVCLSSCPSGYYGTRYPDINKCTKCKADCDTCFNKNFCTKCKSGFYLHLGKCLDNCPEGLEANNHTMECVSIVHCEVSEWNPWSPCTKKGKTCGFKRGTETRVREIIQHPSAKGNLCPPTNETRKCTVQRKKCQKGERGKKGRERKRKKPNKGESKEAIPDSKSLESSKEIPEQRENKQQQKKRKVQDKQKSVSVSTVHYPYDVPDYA

[7] = target: T6, human RSPO3 with C-terminal HA tag, …; assay: IHC, FFPE 293 cell pellet, RSPO3 Hi
[8] = target: T4, FLAG-tagged human RSPO3 (Genentech); assay: competitive binding ELISA: antibody titrated against LGR4-Fc (LGR4-ECD) binding to plate-coated hRSPO3; signal = bound LGR4-Fc, OD(450/630)/OD no antibody
Experimental: To measure the activity of anti-RSPO antibodies in blocking the binding of LGR4 and -5 ECDs to RSPOs, MaxiSorp 384-well microwell plates (Thermo Scientific Nunc, Roskilde, Denmark) were coated with 25 ul/well of 0.5 μg/ml hRSPO2 or hRSPO3 (Genentech) in 50 mM carbonate buffer, pH 9.6, overnight at 4° C. Plates were blocked with at 80 ul/well of 0.5% bovine serum albumin, 15 parts per million Proclin 300 in phosphate buffered saline (PBS), pH 7.4, for 1 hour. Serially diluted anti-RSPO antibodies ([…] in […] serial dilution plus buffer blank) containing 0.1 μg/ml LGR4-Fc or 0.015 μg/ml LGR5-Fc in assay buffer (0.5% BSA, 0.05% polysorbate 20, 15 parts per million Proclin 300 in PBS) were added to the plates at 25 ul/well. After a 2-hour incubation, LGR4-Fc and LGR5-Fc bound to the plates were detected using peroxidase labeled goat F(ab′)2 anti-human Fc (Jackson ImmunoResearch, West Grove, Pa.). After a 1 hour incubation, the substrate 3,3′,5,5′-tetramethyl benzidine (Moss Inc., Pasadena, Md.) was added to the plates and the reaction was stopped by adding 1 M phosphoric acid. Plates were washed with PBS, pH 7.4, containing 0.05% tween 20, between steps and all the incubation steps following the coating step were performed at room temperature on an orbital shaker. Absorbance was read at 450 nm on a multiskan Ascent reader (Thermo Scientific, Hudson, N.H.).

[9] = target: T7, human RSPO4 with C-terminal HA tag, stably expressed in 293 cells (human, UniProt Q2I0M5 20-234); assay: IHC, FFPE 293 cell pellet, RSPO4 Hi; - = not significant staining
T7 construct: also called hRSPO4; RSPO4 Hi

[10] = target: T6, human RSPO3 with C-terminal HA tag, …; assay: IHC, FFPE 293 cell pellet, RSPO3 Low
cynomolgus RSPO3 [11] = target: T3, cynomolgus RSPO3; assay: SPR, BIAcore T200, cyno RSPO3 immobilized, antibody injected
Experimental: (§1) The binding affinity of the antibodies in this section was determined by BIAcore™ T200 Format. Briefly, BIAcore™ research grade CMS chips were activated with 1-ethyl-3-(3-dimethylaminopropyl) carbodiimide (EDC) and N-hydroxysuccinimide (NETS) reagents according to the supplier's instructions. huRSPO3 was immobilized to achieve approximately 50 response units (RU) in each flow cell. Unreacted coupling groups were blocked with 1M ethanolamine. For kinetics measurements, Four-fold serial dilutions of variant antibody was injected in HBS-P buffer (0.01M HEPES pH7.4, 0.15M NaCl, 0.005% surfactant P20) at 25° C. with a flow rate of 30 μl/min. Association rates (kon) and dissociation rates (koff) were calculated using a 1:1 Langmuir binding model (BIAcore™ T200 Evaluation Software version 2.0). The equilibrium dissociation constant (Kd) was calculated as the ratio koff/kon.
(§2) The hu5D6v4.1 and the chimeric 5D6 were tested for their ability to bind cyno and mouse RSPO3 as described above except that cyno or murine RSPO3 replaced huRSPO3 in the binding assay. Binding properties for the humanized antibodies are shown below in Table 5.

recombinant human RSPO3 [12] = target: T1, recombinant human RSPO3; assay: SPR, BIAcore T200, huRSPO3 immobilized, antibody injected
Experimental: as §1

mouse RSPO3 [13] = target: T2, mouse RSPO3; assay: SPR, BIAcore T200, murine RSPO3 immobilized, antibody injected
Experimental: as §1, §2

T5 sequence (Q2MKA7 other isoform, or with tags, fused parts or gaps limits assumed): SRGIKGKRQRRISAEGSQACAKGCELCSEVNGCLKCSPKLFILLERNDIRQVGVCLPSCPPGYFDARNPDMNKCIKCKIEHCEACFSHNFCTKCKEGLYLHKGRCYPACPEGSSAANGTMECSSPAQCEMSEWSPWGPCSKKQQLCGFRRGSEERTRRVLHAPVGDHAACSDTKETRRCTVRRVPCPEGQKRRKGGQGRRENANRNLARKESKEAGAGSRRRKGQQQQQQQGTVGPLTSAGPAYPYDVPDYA
mouse RSPO2, sequence (Q8BFU0 22-205 limits assumed): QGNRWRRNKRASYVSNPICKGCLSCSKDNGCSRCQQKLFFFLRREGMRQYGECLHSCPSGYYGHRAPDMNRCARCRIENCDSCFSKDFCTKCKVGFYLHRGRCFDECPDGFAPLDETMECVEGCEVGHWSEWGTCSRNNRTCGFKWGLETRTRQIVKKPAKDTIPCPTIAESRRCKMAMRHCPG
T7 sequence (Q2I0M5 other isoform, or with tags, fused parts or gaps limits assumed): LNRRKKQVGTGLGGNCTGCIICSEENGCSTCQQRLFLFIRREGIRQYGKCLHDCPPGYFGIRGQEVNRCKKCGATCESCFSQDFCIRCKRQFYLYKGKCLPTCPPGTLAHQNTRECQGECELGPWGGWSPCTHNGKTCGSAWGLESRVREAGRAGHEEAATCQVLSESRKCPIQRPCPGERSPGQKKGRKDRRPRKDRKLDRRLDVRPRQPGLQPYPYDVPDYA
recombinant human RSPO2, sequence (Q6UXX9 22-243): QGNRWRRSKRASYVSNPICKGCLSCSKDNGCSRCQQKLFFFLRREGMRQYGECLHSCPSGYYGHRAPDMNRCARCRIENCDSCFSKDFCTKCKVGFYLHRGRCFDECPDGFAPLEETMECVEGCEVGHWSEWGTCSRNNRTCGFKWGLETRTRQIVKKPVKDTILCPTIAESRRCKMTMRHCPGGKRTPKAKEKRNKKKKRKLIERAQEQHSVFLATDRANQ
cynomolgus RSPO2, sequence (G7PCH9 entry or part of it): as the sequence (Q6UXX9 22-243) above, with V160A, L165P, T178A counted along it

Row | Binder | IC50, WNT luciferase reporter, bivalent antibody (cynomolgus RSPO2) [nM] | IC50, WNT luciferase reporter, bivalent antibody (recombinant human RSPO3 [1]) [nM] | IC50, WNT luciferase reporter, bivalent antibody (mouse RSPO3 [2]) [nM] | IC50, WNT luciferase reporter, bivalent antibody (cynomolgus RSPO3 [3]) [nM] | IC50, WNT luciferase reporter, bivalent antibody (mouse RSPO2) [nM] | IC50, WNT luciferase reporter, bivalent antibody (recombinant human RSPO2) [nM] | IC50 (read off the curve) [4] [µg/mL] | binding result [5] | percentage of cells staining [6] [%] | percentage of cells staining [7] [%] | IC50 (read off the curve) [8] [µg/mL] | binding result [9] | percentage of cells staining [10] [%] | other results
1 | 6E9 (antibody, V domains shown, also called monoclonal antibody 6E9) VH: QVQLKESGPGLVQPSQSLSITCTVSGFSLTSYGVHWVRQSPGKGLEWLGVIWSGGSTDYNAAFISRLSISKDNSKSQVFFKMNSLQANDTAIYYCARNDGYYYFDYWGQGTTLTVSS VL: DIKMTQSTSSLSASLGDRVTISCRASQDISNYLNWYQQKPDGTVKLLIYYTSRLHSGVPSRFSGSGSGTDYSLTISNLEQEDIATYFCQQGDTLPPAFGGGTKLEIK | > 500 | 5.6 | 140 | 6.5 | > 500 | > 500 | ~0.08 | no binding | 70 | > 95 | ~0.1 | no binding | 50 | 
2 | 4H1 (antibody, V domains shown, Hybridoma-derived monoclonal (mice or hamsters immunized with hRSPO2 and/or hRSPO3), cloned, expressed and purified; also called monoclonal antibody 4H1) VH: EVKLVESGGGFVKPGGSLKLSCAASGFTFSNFAMSWVRQSPEKRLEWVAEINNGGNYAYYQDTVTGRFTISRDNAKNTLYLEMSSLRSEDTAMYFCAREDYVNYEAYFAYWGQGTTLTVSS VL: SIVMTQTPLSLPVSLGDQASISCRSSQSIVHSNGNTYLEWYLQKPGQSPKLLIYRISNRFSGVPDRFSGSGSGTDFTLKISRVEAEDLGVYYCFQGSHVPYTFGGGTKLEIK | 2.8 | 0.8 | 0.69 | 0.29 | > 500 | 6.4 | ~0.08 | no binding | 60 | 90 | ~0.1 | no binding | 30 | 
3 | 5D6 (antibody, V domains shown, Murine; also called monoclonal antibody 5D6; mu5D6) VH: EVQLQESGPSLVKPSQTLSLTCSVTGDSITSGYWNWIRKFPGNKFEYMGYISYSGKTYQNPSLKSRISITRDTSKNQYHLQLNSVTTEDTATYYCATYYGYGGPWFAYWGQGTLVTVSA VL: DIVLTQSPSSMYASLGERVTITCKASQDIDSYLSWFQQKPGKSPKTLIYLTNRLVDGVPSRFSGSGSGQDYSLTISSLEYEDMGIYYCLHYDEFPLTFGAGTKLEIK | > 500 | 0.0003 | 0.001 | 0.0003 | > 500 | > 500 | ~0.1 | no binding | 70 | > 95 | ~0.1 | no binding | 30 | 
4 | chimeric 5D6 (antibody, V domains shown, also called 5D6 chimera) VH: EVQLQESGPSLVKPSQTLSLTCSVTGDSITSGYWNWIRKFPGNKFEYMGYISYSGKTYQNPSLKSRISITRDTSKNQYHLQLNSVTTEDTATYYCATYYGYGGPWFAYWGQGTLVTVSA VL: DIVLTQSPSSMYASLGERVTITCKASQDIDSYLSWFQQKPGKSPKTLIYLTNRLVDGVPSRFSGSGSGQDYSLTISSLEYEDMGIYYCLHYDEFPLTFGAGTKLEIK |  |  |  |  |  |  |  |  |  |  |  |  |  | Kd (cynomolgus RSPO3 [11]): 0.0453 nM; koff (cynomolgus RSPO3 [11]): 0.000224 s⁻¹; kon (cynomolgus RSPO3 [11]): 4.96e+06 M⁻¹ s⁻¹; Kd (recombinant human RSPO3 [12]): 0.0331 nM; koff (recombinant human RSPO3 [12]): 0.000116 s⁻¹; kon (recombinant human RSPO3 [12]): 3.51e+06 M⁻¹ s⁻¹; Kd (mouse RSPO3 [13]): 0.0578 nM; koff (mouse RSPO3 [13]): 0.000237 s⁻¹; kon (mouse RSPO3 [13]): 4.1e+06 M⁻¹ s⁻¹

— patent US20180312579A1 (Genentech, published 2018)
